{"source": "paper PMC9712689", "about": "(Communications Biology, 2022)", "binders": {"B1": {"name": "PA4063 (natural protein)", "chain": "HDDHDHDHAHGSLGKHEHGVAQLNVALDGKTLELELDSPAMNLVGFEHAASTDADKAAVAKARAQLEKPLELFALPVTAGCSVASQELRSPLFGDKAPAHAHKEKAGHEHEHEHEHEHGHADIHAHYQLSCEKPELLKLLTLAEFFKRFPATQKIQVQLIGPDGQKGADLAPASAELKL", "notes": "source: E. coli, purified (Ni-NTA or Strep-Tactin)"}, "B2": {"name": "PA2854 (natural protein)", "chain": "LELQLPPPGEDVVGQVQVIKAKYEDTFADLGEQYNLGYSEMVAANPGVDPWLPGVGTEVIIPTRFVLPPGPREGVVINLAEYRLYYYPKGQNVVHTYPLGIGREGWGSPIANTRITAKTKDPAWYPPASIRAEHAADGDPLPTVVPPGPDNPLGPYKLTLGVPGYLIHGSNKKFGIGTRTSHGCFRMYNADVTHLFSMISVGTSVRIINEPYKFGVSNGKVYLEAHTPLNDHGDPSVVDKHTAVINTLLKRDDLAKRIQLNWDVVREVVASEDGVPVEIAQESAPAMTATVDSDPTQLTP", "notes": "as for B1"}, "B3": {"name": "PilO (natural protein)", "chain": "YNFHLSDMQAQLEQQAAEEETLKQQFSTKAFQAANLEAYKAQMKEMEESFGALLRQLPSDTEVPGLLEDITRTGLGSGLEFEEIKLLPEVAQQFYIELPIQISVVGGYHDLATFVSGVSSLPRIVTLHDFEIKPVAPGSTSKLRMSILAKTYRYNDKGLKK", "notes": "as for B1"}, "B4": {"name": "RlpA-Δ81 (domain or fragment)", "chain": "YTVLGKTYYPMNDARAYRMVGTASWYGTKFHGQATANGETYDLYGMTAAHKTLPLPSYVRVTNLDNGKSVIVRVNDRGPFYSDRVIDLSFAAAKKLGYAETGTARVKVEGIDPVQWWAQRGRPAPMVLAQPKQAVAQAAPAAAQTQAVAMAQPIETYTPPPAQHAAAVLPVQIDSKKNASLPADGLYLQVGAFANPDAAELLKAKLSGVTAAPVFISSVVRNQQILHRVRLGPIGSADEVSRTQDSIRVANLGQPTLVRPD", "notes": "source: E. coli BL21-star (DE3), purified (Ni-NTA)"}, "B5": {"name": "RlpA-Δ32·MltF2 complex (MST) (complex)", "chain 1": "PQQPARQAGISGPGDYSRPHRDGAPWWDVDVSRIPDAVPMPHNGSVKANPYTVLGKTYYPMNDARAYRMVGTASWYGTKFHGQATANGETYDLYGMTAAHKTLPLPSYVRVTNLDNGKSVIVRVNDRGPFYSDRVIDLSFAAAKKLGYAETGTARVKVEGIDPVQWWAQRGRPAPMVLAQPKQAVAQAAPAAAQTQAVAMAQPIETYTPPPAQHAAAVLPVQIDSKKNASLPADGLYLQVGAFANPDAAELLKAKLSGVTAAPVFISSVVRNQQILHRVRLGPIGSADEVSRTQDSIRVANLGQPTLVRPD", "chain 2": "RITGQPDNWHREQPETRDLASIRRAGVLKVLVNQSRNSSGEVKGEPIGVEYRRLRAFEQYLNSRSPSARNLTLKLIPKPKDQLLAALQRGEGDLVAPGELLPAHDGLQVSPSAPVRADVPLVLVARKGNRRYTRLEQLSGRTIPLPAGSAAEGAIELVNQRLAQRRMAPIRIEKLDASLAVEDVMEMVQAGILGFTVVEQPIAERWAKVLPKLRVDRHLVLDNRADMAWYVRRDASTLRATIDRFLADYRAPADQDVAFQRVYRRAYKVRNPLGAADRKRLEAVRPLLQRYARQSSMDWLALAAVAYKESHLNPKARGSGGASGLMQITPAAARSVGVGNVHDKDSNVLAASRYLTKIRKQFFSSKHLDERERLAFTLAAYNMGPERVQNLRTQARRRGLDPNRWFFQVERVAAEEIGMGVVSYVSSVNKYYLAYERERVRLEPGVRAKTATAQK", "modifications": "amine reactive RED-NHS dye"}}, "settings_in_all_cases": "both partners purified", "key": {"RlpA-Δ32": {"molecular_target": "T1, RlpA-Δ32 (P. aeruginosa PAO1, UniProt Q9X6V6 32-342)", "T1 construct": "source: E. coli BL21-star (DE3), purified (Ni-NTA)", "T1 sequence": "B5 chain 1", "assay": "SPR"}, "RlpA-Δ81": {"molecular_target": "B4", "assay": "SPR"}, "[1]": {"molecular_target": "T2, RlpA-Δ32, fluorescently labeled (P. aeruginosa PAO1, UniProt Q9X6V6 32-342, amine reactive RED-NHS dye)", "T2 construct": "source: E. coli BL21-star (DE3), purified (Ni-NTA), labelled with RED-NHS dye", "T2 sequence": "B5 chain 1", "assay": "MST"}, "[2]": {"molecular_target": "B5", "assay": "MST"}, "TypA": {"molecular_target": "T3, TypA (P. aeruginosa PAO1, UniProt Q9HU67 1-605)", "T3 sequence (looked up)": "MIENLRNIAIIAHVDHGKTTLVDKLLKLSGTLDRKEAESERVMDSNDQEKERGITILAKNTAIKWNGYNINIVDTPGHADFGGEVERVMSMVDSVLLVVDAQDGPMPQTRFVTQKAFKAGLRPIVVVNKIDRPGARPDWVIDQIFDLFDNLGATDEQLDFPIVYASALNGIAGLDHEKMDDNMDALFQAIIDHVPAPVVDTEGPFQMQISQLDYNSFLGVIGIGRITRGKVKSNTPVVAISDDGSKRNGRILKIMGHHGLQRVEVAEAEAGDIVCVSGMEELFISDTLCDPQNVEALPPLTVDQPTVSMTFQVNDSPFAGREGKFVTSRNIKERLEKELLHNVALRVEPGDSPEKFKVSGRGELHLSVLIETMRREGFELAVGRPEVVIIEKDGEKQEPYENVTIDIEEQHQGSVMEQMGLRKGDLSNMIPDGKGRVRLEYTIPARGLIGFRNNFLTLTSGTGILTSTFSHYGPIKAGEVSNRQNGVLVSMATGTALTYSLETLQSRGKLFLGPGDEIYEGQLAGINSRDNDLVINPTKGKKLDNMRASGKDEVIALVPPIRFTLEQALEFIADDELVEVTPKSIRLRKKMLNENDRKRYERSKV", "assay": "SPR"}, "MltF2": {"molecular_target": "T4, MltF2 (P. aeruginosa PAO1, UniProt Q9HZY1 1-476)", "T4 sequence (looked up)": "B5 chain 2", "assay": "SPR"}, "PBP1a [3]": {"molecular_target": "T5, PBP1a (P. aeruginosa PAO1, UniProt Q07806 27-822)", "T5 sequence (Q07806 27-822)": "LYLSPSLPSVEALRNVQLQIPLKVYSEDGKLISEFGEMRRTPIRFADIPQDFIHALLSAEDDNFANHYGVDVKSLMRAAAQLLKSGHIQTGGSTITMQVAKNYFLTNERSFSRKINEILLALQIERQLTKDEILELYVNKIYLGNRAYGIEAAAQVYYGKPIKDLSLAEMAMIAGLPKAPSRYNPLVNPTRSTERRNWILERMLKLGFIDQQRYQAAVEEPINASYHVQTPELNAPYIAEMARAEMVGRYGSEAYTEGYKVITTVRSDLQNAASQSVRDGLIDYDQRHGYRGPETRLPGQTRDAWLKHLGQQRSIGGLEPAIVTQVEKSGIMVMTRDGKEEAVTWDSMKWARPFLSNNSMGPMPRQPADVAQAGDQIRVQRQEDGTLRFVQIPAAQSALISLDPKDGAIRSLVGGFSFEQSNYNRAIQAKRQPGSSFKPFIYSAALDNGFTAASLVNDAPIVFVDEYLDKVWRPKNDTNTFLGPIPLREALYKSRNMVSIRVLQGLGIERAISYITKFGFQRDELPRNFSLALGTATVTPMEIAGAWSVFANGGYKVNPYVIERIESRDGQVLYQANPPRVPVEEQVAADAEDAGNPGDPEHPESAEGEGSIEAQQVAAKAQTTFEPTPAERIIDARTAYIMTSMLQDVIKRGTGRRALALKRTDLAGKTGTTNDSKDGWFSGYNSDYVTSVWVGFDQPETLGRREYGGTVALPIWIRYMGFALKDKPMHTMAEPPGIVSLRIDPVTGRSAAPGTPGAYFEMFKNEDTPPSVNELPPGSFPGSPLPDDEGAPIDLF", "assay": "SPR"}, "PA2854": {"molecular_target": "B2", "assay": "SPR"}, "MltD": {"molecular_target": "T6, MltD (P. aeruginosa PAO1, UniProt Q9I2T2 1-534)", "T6 sequence (looked up)": "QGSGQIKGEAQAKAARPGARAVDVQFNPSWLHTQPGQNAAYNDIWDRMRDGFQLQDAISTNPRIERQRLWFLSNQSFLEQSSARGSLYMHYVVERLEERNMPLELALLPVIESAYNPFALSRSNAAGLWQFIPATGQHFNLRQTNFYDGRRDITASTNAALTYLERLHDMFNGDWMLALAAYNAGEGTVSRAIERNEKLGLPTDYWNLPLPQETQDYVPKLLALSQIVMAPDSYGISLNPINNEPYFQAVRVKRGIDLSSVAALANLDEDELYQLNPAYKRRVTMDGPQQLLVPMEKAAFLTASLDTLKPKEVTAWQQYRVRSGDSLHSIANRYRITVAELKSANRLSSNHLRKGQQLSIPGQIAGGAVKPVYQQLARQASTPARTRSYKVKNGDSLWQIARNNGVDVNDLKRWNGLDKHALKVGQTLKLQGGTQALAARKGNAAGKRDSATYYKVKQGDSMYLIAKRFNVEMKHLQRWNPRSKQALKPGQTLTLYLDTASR", "assay": "SPR"}, "PBP1a [4]": {"molecular_target": "T5, PBP1a", "assay": "MST"}}}
{"binder": "B1", "values": [{"measurement": "Kd", "setting": "RlpA-Δ32", "result": 810, "unit": "nM"}, {"measurement": "koff", "setting": "RlpA-Δ32", "result": 0.00145, "unit": "s⁻¹"}, {"measurement": "kon", "setting": "RlpA-Δ32", "result": 1800, "unit": "M⁻¹ s⁻¹"}, {"measurement": "Kd", "setting": "RlpA-Δ81", "result": 1080, "unit": "nM"}, {"measurement": "koff", "setting": "RlpA-Δ81", "result": 0.00194, "unit": "s⁻¹"}, {"measurement": "kon", "setting": "RlpA-Δ81", "result": 1800, "unit": "M⁻¹ s⁻¹"}, {"measurement": "Kd", "setting": "[1]", "result": 201, "unit": "nM"}, {"measurement": "Kd", "setting": "[2]", "result": 105, "unit": "nM"}]}
{"binder": "B2", "values": [{"measurement": "Kd", "setting": "RlpA-Δ32", "result": 65, "unit": "nM"}, {"measurement": "koff", "setting": "RlpA-Δ32", "result": 0.00032, "unit": "s⁻¹"}, {"measurement": "kon", "setting": "RlpA-Δ32", "result": 4900, "unit": "M⁻¹ s⁻¹"}, {"measurement": "Kd", "setting": "[1]", "result": 58, "unit": "nM"}, {"measurement": "Kd", "setting": "[2]", "result": 55, "unit": "nM"}]}
{"binder": "B3", "values": [{"measurement": "Kd", "setting": "RlpA-Δ32", "result": 3130, "unit": "nM"}, {"measurement": "koff", "setting": "RlpA-Δ32", "result": 0.00275, "unit": "s⁻¹"}, {"measurement": "kon", "setting": "RlpA-Δ32", "result": 880, "unit": "M⁻¹ s⁻¹"}, {"measurement": "Kd", "setting": "RlpA-Δ81", "result": 1010, "unit": "nM"}, {"measurement": "koff", "setting": "RlpA-Δ81", "result": 0.00076, "unit": "s⁻¹"}, {"measurement": "kon", "setting": "RlpA-Δ81", "result": 750, "unit": "M⁻¹ s⁻¹"}, {"measurement": "Kd", "setting": "[1]", "result": 350, "unit": "nM"}, {"measurement": "Kd", "setting": "[2]", "result": 208, "unit": "nM"}]}
{"binder": "B4", "values": [{"measurement": "Kd", "setting": "TypA", "result": 74, "unit": "nM"}, {"measurement": "koff", "setting": "TypA", "result": 0.00047, "unit": "s⁻¹"}, {"measurement": "kon", "setting": "TypA", "result": 6400, "unit": "M⁻¹ s⁻¹"}, {"measurement": "Kd", "setting": "MltF2", "result": 3, "unit": "nM"}, {"measurement": "koff", "setting": "MltF2", "result": "4e-05", "unit": "s⁻¹"}, {"measurement": "kon", "setting": "MltF2", "result": 14900, "unit": "M⁻¹ s⁻¹"}, {"measurement": "Kd", "setting": "PBP1a [3]", "result": 94, "unit": "nM"}, {"measurement": "koff", "setting": "PBP1a [3]", "result": 0.00177, "unit": "s⁻¹"}, {"measurement": "kon", "setting": "PBP1a [3]", "result": 18800, "unit": "M⁻¹ s⁻¹"}, {"measurement": "Kd", "setting": "PA2854", "result": 2270, "unit": "nM"}, {"measurement": "koff", "setting": "PA2854", "result": 0.00075, "unit": "s⁻¹"}, {"measurement": "kon", "setting": "PA2854", "result": 330, "unit": "M⁻¹ s⁻¹"}, {"measurement": "Kd", "setting": "MltD", "result": 56, "unit": "nM"}, {"measurement": "koff", "setting": "MltD", "result": 0.0039, "unit": "s⁻¹"}, {"measurement": "kon", "setting": "MltD", "result": 69000, "unit": "M⁻¹ s⁻¹"}]}
{"binder": "B5", "values": [{"measurement": "Kd", "setting": "PBP1a [4]", "result": 45, "unit": "nM"}]}
